This assay has as its target T1, recombinant human Apaf-1(1-591AA)-His (human, UniProt O14727 1-591).
T1 sequence (looked up): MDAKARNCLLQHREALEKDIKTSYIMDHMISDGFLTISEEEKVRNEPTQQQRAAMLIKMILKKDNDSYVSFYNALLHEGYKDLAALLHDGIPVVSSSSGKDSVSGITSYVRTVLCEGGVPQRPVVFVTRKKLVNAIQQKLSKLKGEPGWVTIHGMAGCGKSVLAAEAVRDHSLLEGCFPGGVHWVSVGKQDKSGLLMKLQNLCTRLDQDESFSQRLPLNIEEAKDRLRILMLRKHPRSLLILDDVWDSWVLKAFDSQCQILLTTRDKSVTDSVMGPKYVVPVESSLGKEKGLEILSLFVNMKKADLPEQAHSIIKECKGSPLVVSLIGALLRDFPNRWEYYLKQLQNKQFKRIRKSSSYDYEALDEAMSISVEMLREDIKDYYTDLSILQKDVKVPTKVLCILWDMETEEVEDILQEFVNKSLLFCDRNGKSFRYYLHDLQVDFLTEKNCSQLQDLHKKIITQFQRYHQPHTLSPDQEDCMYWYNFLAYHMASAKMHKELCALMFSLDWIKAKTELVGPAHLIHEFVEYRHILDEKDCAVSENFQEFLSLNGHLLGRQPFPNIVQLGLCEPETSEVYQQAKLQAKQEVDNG
Kind of assay: SEC. (SEC sorts molecules by how far they enter the pores of the column.)

Values joined by “and” are separate entries in the source; they are usually repeats but may differ in a detail not shown here. Equal values may be shown once.

B1: recombinant human caspase-4 (CARD)-Fc-HA (Fc fusion, UniProt P49662 1-91, looked up)
chain: MAEGNHRKKPLKVLESLGKDFLTGVLDNLVEQNVLNWKEEEKKKYYDAKTEDKVRVMADSMQEKQRMAGQMLLQTFFNIDQISPNKKAHPN
As for B1, the “stoichiometry N” value is 1.8 molecules of caspase-4 (CARD) for each Apaf (1-591) heptamer and 2.1 molecules of caspase-4 (CARD) for each Apaf (1-591) heptamer.

Values taken from paper doi:10.1101/2020.01.27.921122 (bioRxiv, 2020).
